The values that follow come from the DeepSol protein solubility set.

A short description of the data set: soluble on expression in E. coli; label from the status in PepcDB or PDB records.
In the case of “MQIDVDPQEDPQNAPDVNYVVENPTLDLEQYAASYSGLMRIERLQFIADRCPPLRVEALKMALSFVQRTFNVDMYEEIHRKLSEATRELQNAPDAIPESGVEPPPLDTAWVEATRKKALLKLEKLDTDLKNYKGNSIKESIRRGHDDLGDHYLDCGDLSNALKCYSRARDYCTSAKHVINMCLNVIKVSVYLQNWSHVLSYVSKAESTPEIAEQRGERDSQTQAILTKLKCAAGLAELAARKYKQAAKCFLLASFDHCDFPELLSPSNVAVYGGLCALATFDRQELQRNVISSSSFKLFLELEPQVRDIIFKFYESKYASCLKMLDEMKDNLLLDMYLAPHVRTLYTQIRNRALIQYFSPYVSADMHKMAAAFNTTVAALEDELTQLILEGLINARIDSHSKILYARDVDQRSTTFEKSLLMGKEFQRRAKAMILRAAVLRNQIHVKVKSLGCEGMGGTHTASTEPSLSTAVSS”, the “soluble on expression in E. coli” value is “not soluble”.
For “MAHHHHHHMSSEHWVFFGLPPFFTEQHSSATLDRQCTLWSNLLLDHAIYHAQRTAGGDTNALLRFYTTQSDIFYNPAINKRLSPEGAHTMLQSLVARHPNHVVIVSDGGPRDFSVLVCTTEDGFKGMEETLLRYILDHGEVQTTAMLSKKGTVMTFDELASGAALGYGQTRSAYLARFSSAAVPVADVGRLSEEQAIRMYLHALNRRPVSAMRPFKVTLFNLDGTATQPYQGVKFGGE” the value was “soluble”; for “MSKTTLVERCYKYIMSNEKNWSPYTVINRKSWVKNYIEPFFKDTKLIDINPVLIQTFINTTFNNCTFSSSKIRYRFISSVLKEAYRLREINENPCDFVKLPLEHHHHHH”, “soluble”; for “MGSDKIHHHHHHMAYTVLLVTSVNTYKEQLNHPIMSDVGKLLPTKIKRVESATDEHSLIKLVQDANVSGEKISIAGMQHSQGGQTYYPHGTMLDMKGYNKILEFDPEKKRITVQSGATWNDIQKKVNPYGLAVQVMQSQNIFTVGGSLSVNVHGRDIRHEALIDTVESFRLLMADGTVRNVSREENADLFPYVIGGYGLFGVILDVTLKLTNDELYETHTKMLDYKEYTSYFKEKVKKDENVRMHLARISVAPNSFFREMYVTDYTLAKNQNMREEYSKLKEETIIAAPKFLLGLSRYSDWGKDTFWDIQRSYFERTDGKYETRNNVMRSDSAFMEYENPNRTEVLQEYFVPIDFFTEYIDDLRNVLNEEEFNLLNITVRYVEKNENAVLSYAKDDMFALVLLINQGRSEHEIKKTENVIQKMIDVTLKHNGSYYLPYYSYPSKEQLRRAYPRIEEFLQKKKEADPKERFVNLFYREYTK”, “not soluble”.
For “LPDGIEEVLPPEAARIEVARRQVLDLFQSWGYEFVVTPHIEYLESLLTGAGSDLDLRTFKVIDPQSGRQMGFRADITPQVARIDAHTLKREGPSRLCYAGSVLHAQPRALSSSRSPIQLGAELYGDASPSSDVEVISLMLAMLQLADVPDVHMDLGHVGIYRGLARAAGLSGEVEQQLFDALQRKAIDEVVALTANLPPELASMLRALVDLCGGREVLDAARDRLAGAPAPVLEALDDLLAIADRLAARFPQLPLYFDLGELRGYHYHTGVVFAVFVPGVGQSIAQGGRYDDIGADFGRARPATGFSTDLKTLVTLGQAEIVL” the value was “not soluble”; for “LFLPNTRAYRRYNRSVWAVRGSTRPQWQPPPKFQHAKCMSMRLAHRLQILLDDECHRRITAVARERGVPVATVVREAIDRGLVSPAGRRKSAGRRLLDAADMSVPEPRELKQELEALRARRG”, “not soluble”.
For “MNYLFKNGRYMNEEGKIVATDLLVQDGKIAKVAENITADNAEVIDVNGKLIAPGLVDVHVHLREPGGEHKETIETGTLAAAKGGFTTICAMPNTRPVPDCREHMEDLQNRIKEKAHVNVLPYGAITVRQAGSEMTDFETLKELGAFAFTDDGVGVQDASMMLAAMKRAAKLNMAVVAHCEENTLINKGCVHEGKFSEKHGLNGIPSVCESVHIARDILLAEAADCHYHVCHVSTKGSVRVIRDAKRAGIKVTAEVTPHHLVLCEDDIPSADPNFKMNPPLRGKEDHEALIEGLLDGTIDMIATDHAPHTAEEKAQGIERAPFGITGFETAFPLLYTNLVKKGIITLEQLIQFLTEKPADTFGLEAGRLKEGRTADITIIDLEQEEEIDPTTFLSKGKNTPFAGWKCQGWPVMTIVGGKIAWQKESALV” the value was “not soluble”.
